Reference: paper PMC6735679
Like-named read-outs stand apart in the source and are kept apart here.

What was measured:
[1] = molecular target: T1, CNBP (Homo sapiens, UniProt P62633 1-177); assay: EMSA
[2] = molecular target: T1, CNBP; assay: EMSA; remark: listed apart in the source

T1 sequence (P62633 whole entry): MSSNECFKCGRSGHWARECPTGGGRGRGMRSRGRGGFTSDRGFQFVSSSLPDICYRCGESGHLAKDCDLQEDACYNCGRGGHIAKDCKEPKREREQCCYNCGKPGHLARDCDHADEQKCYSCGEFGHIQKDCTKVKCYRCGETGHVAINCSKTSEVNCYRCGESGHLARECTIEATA

Binder: TGGGGT (ssDNA) [TG4T (single strand)]
- binding result [1]: no binding

Binder: GAGGGGGAGGGGGG (ssDNA) [C14]
- binding result [2]: binds
